From a protein production outcome set (Wang et al. 2014)

assay: label from the status in PepcDB records
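Also: failed if final PepcDB status was selected cloned or expressed and not failed if soluble or beyond.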

Sequence	protein production
MADQAPRPAREFVVEADGGSRGNPGPAGYGAVVLDPVTGEALVEAAEYLGVVTNNVAEYRGLLAGLRAAAELDPDATVHVRMDSKLVVEQMSGRWKIKHPDMKPLAAEAARVFPPGRVTYEWIPRASNKHADRLANEAMDAGARGEAWSPSDSTAELDAAAADRAAPAGRTAGSRRTGAASAVAPAGTEGGDGGEPAPDGGGAAAGEPLARAGRDRVDAASLGAGTRAATSTGASATGTSGTGASATGTSGTGASATGAPGLGVAAETSGEADVRAAKVVASPGWGPPDMGAPATFVLLRHGETPLTPQKRFSGSGGSDPSLSPVGREQAERVAASLARRGTIEAVVASPLARTRETAGIVAARLGLEVAIEEGLRETDFGAWEGLTFGEVRERHPADLDAWLASPDAEPTGGGESFAATGTRIAATRDRLVAAYAGRTVLLVSHVTPIKTFVRLALGAPPESLFRMELSAASLSAVAYYADGGASVRLFNETSHLR	failed
MADQSFAVLGLGKFGMALTVALLKAEQDVLVIDSNEEVINDVAHLVTHAVIADATDEDELRDLDIGSFDHVFVTMGENVEGSIITTMLAKKLGAPDVTTRANNHNHRLVLEKIGADHVIEPEQDMARQLIFRQLHPNVVNYFNLSKNISLIEVSVENSRFFNQSLGDLDFRKNYDVSVIGIVHDGKLNQVPLATDVIAPHDQITLIGSNKAVQRLDDILREEK	failed
MADRLIVRGAREHNLKNVSLDLPRDSLIVFTGLSGSGKSSLAFDTIFAEGQRRYVESLSSYARQFLGQMDKPDVDFIEGLSPAVSIDQKSTSRNPRSTVGTITEVYDYLRLLFARIGKPHCPECGRPISRQSPQAIVDKVLELPEGSRFQVLSPLVRERKGEFVDLFADLQTKGYSRARVDGETVQLSNPPTLKKQEKHTIEVVVDRLTVKDSAKRRLTDSVETALGLSGGMVVLDFVDLPEDDPERERMYSEHLYCPYDDLSFEELEPRSFSFNSPFGACPDCSGIGTRMEVDAELIVPDEDKSLDEGAIHPWSHGHTKDYFGRLIGALADALGFRTDIPFAGLPLRARKALLYGHKTQVEVRYRNRYGRERRYTTAFEGAIPFVKRRHSEAESDASRERFEGYMREVPCPTCQGTRLKPLVLAVTVMGKSIAEVSAMSISDCADFLGELTLNARDKKIAERVLKEVNERLRFLVDVGLDYLSLNRAAGTLSGGEAQRIRLATQIGSGLVGVLYVLDEPSIGLHQRDNHRLIETLVRLRDMGNTLIVVEHDEDTIKVADWIVDIGPGAGEHGGKVVHSGSVKELLDNAESQTGLYLSGRKAIPLPDIRRPQDPSRRLTVHGARENNLQDIDVSFPLGVFTAVTGVSGSGKSTLVNDILYTHLARELNGARNVPGRHTRVDGDDLVDKVVHVDQSPIGRTPRSNPATYTGVFDHIRKLFAETTEAKVRGYLPGRFSFNVKGGRCENCAGDGTIKIEMNFLPDVYVPCEVCHGARYNRETLEVHYKGKSIADVLNMPIEEATDFFEAVPAISRHMKTLKDVGLGYVRLGQSATTLSGGEAQRVKLASELQRRSTGRTVYVLDEPTTGLHFEDISKLLTVLGGLVDKGNTVIVIEHNLDVIKTADWVVDMGPEGGAGGGLVVAEGTPEQVAGVPASHTGKFLRDVLGADRVSDAAPVTRPRKAAKTVAAKAAAKKTATKTVTGTAAKKATATRTAKTAVKKAAKPAAKKTTRTSKA	failed
MADSENMYILSEDEDVCPTCLEEYTSENPKIVTKCSHHFHLSCIYEWMERSENCPVCGKVMEFNETP	failed
MADSRPRLVTGSPEGYPGHVDGRLRDARLNNPKGLTVDDRGNIYVADTVNNAIRKISEAGVTTIAGGKMVRGGGHVDGPSEDAKFSNDFDVVYLGSSCSLLVIDRGNQAIREIQLHFDDCADQYGSGFPLGIAVLVAAVFFGYMLALLQRRLSSIVSYHTDQEVFEAVPDQDPIKPVRPPLILTGDEQEKQEESFLGTLQIFISNAWVFSVELFSGMFPGLRKKQTVGLNFNHQETKHSAFSTTSWPIQESFVIHNKDEPPPVESRNATPGKIYPFMSKDATEKMQQLRQSRALYRSLDAEFLQEQQQEKHQQYHHRHHSTIPYTLYEQSSEKTNEIVFGPGQEQDQMNTHQNIHHRAHQFVSYPYGYYS	failed
MADVATKHPMEDEVKKTEASSLVGKLETDVEIKASADKFHHMFAGKPHHVSKASPGNIQGCDLHEGDWGTVGSIVFWNYVHDGEAKVAKERIEAVEPDKNLITFRVIEGDLMKEYKSFLLTIQVTPKPGGPGSIVHWHLEYEKISEEVAHPETLLQFCVEVSKEIDEHLLAEEEEVKTPETPSLVGKLETDVEIKASAEKFHHMFAGKPHHVSKASPGNIQGCDLHEGDWGQVGSIVFWNYVHDREAKVAKERIEAVEPNKNLITFRVIDGDLMKEYKSFLLTIQVTPKLGGPGSIVHWHLEYEKISEEVAHPETLLQFCVEVSKEIDEHLLAEE	failed
MADVENQQDSSFPVKRKSDLFCQDQDNVTNKAQKLNPSLNSADSESKDGETNGSGQIENLNSSTEETIGAESSVLSEKAAEEVESGVIGDVGAEEEQEDEEDEEEDDEEEEEEEEVVDRKGKGISREDKGKGKMIEVEESDDEDDSDDDEDDEGFDEDDESDFSDDPLAEVDLDNILPSRTRRRSSQPGVFIPNEFSNRHVNDEDDESSDSDA	failed
MAEASSLVGKLETEVEIKASAKKFHHMFTERPHHVSKATPDKIHGYGKLTVGKNKIEAVDPEKNLITFKVLEGDLMNEYKSFAFTLQVTPKQGESGSIAHWHLEYEKISEEVAHPETLLQFCVEISKEIDEHLLAEE	failed
MAEDFSVVVLASDLGIDARPFLTRSDDVDEQENWHDCPQYLGDEDFSDLDLLQFFTLQGLDRSGNRIFRIVGKYFPARVVSAERLKKYISQKISNQCPEGPLCLVYMHSTVQKDDNSPGITILRWIYEDLPSDIKDRLQLVYFIHPGLRSRLVIATLGRLLLSGGLYWKIKYVSRLQYLWEDIKKGEVEIPDFVKNHDNVLEHRPLTDYGIEPDPFQLSEVQSSSFSLNRYENRWVS	failed
MAEEQEIVDSLSAEVNPDQKVDMEVETATPKAETGDEKREREETEEEENGGESKKQKVGEEEKSGPVKLGPKEFVTSVAMFDYFVKFLHFWPTDLDVNKYEHMVLLDLIKKGHSEPEKKIGGGIKTFQVRTHPMWKSRCFFLVREDDTADDFSFRKCVDQILPLPENMKTPGANGNGHGGGRGGGGGRRGGRGGGRGGRFRR	failed
MAEERHHTEHIPQWKKDEIENIKELIQSHKVFGMVRIEGILATKIQKIRRDLKDVAVLKVSRNTLTERALNQLGESIPEMTRYLDNQTALIFTNESPFKLYKLLEQTKTPSPIKAGAIAPEDIIVQKGPTSFPPGPILGELQSAGIPASIDAGKVAVKETKVVCKAGEAVPQKLATMLSKLEIYPLIVGLDLRAAYDDGTIYEPELLAVDESKYFSDIIRAAQNAFNLSVNTAYPTGATIGTLLAKAYAESKSLGVNAVILEPGVMDSLLAKAHVQMTSVASEAAEKDANAVDDDLREVLGAAASAAAAATVAAPAAEEEKKEEEPEEEEEDHAEEDGMAGLGALFGLEHHHHHH	not failed
MAEERRIDWSSLWKKEDWWAFWLGMLLFVLCLATAYGADIMGWVVKSSTWVDVSKAMGPTSKNFAYLGPIGSFVVSWLVLLILTTIGAVAMGWKGGKFAAAFTVIFILTWICWVIGHNAYIAATDPAKAGVPWSLRMTGEAGYIFALILGLIIGNFFKGFANWLKEAAKPEWFIKTAIVLLGAVVGIKAPTIPPEILYNYLFRGLCAIVEAYLIYWALVYWVARRYFGFSREWAAPLASGISICGVSAAIATGGAIRARPVVPVMVASLVIVFAVVELLFLPFLAATFLQHQPLVAGAWMGLAVKTDGAATASVKWLKL	failed
MAEGGGCRERPDAETQKSELGPLMRTTLQRGAQWYLIDSRWFKQWKKYVGFDSWDMYNVGEHNLFPGPIDNSGLFSDPESQTLKEHLIDELDYVLVPTEAWNKLLNWYGCVEGQQPIVRKVVEHGLFVKHCKVEVYLLELKLCENSDPTNVLSCHFSKADTIATIEKEMRKLFNIPAERETRLWNKYMSNTYEQLSKLDNTVQDAGLYQGQVLVIEPQNEDGTWPRQTLQSKSSTAPSRNFTT	failed
MAEITEKVLKKPNAIPDVFERKGGSAPTATHYCAGCGHGIIHKLMAEAIDELEIQDRCVLISPVGCAVFAYYYFDCGNIQVAHGRAPAVGTGVSRAEDNAIVMSYQGDGDLASIGLNETIQAANRGEKMAVFFVNNTVYGMTGGQMAPTTLIGEKTVTCQTGRDPRFAGYPIHMCELLSSLKAPVFIERVSVSDIAHIRKAKRAIKKALEIQRDGKGYAFVEILSPCPTNLRQDANAAQKFINEEMEKEFPLQNFRDRSAEVETLNRGESDFSKECLDNIFEVNSKGAEDPSEDLSFEEKLVKIAGFGGQGVLSMGLTLAEAACRDQKYVSWYPSYGPEQRGGTSNCSVIISGHEIGSPVVYSPGVLIALNKPSLENFAKDVKTGGTIIYDENIGDFEIPNGVTAIKVPASKIATEMGVSRAANTVMLGVLSALGYTGLSESVFVGAIEQTFSKKPKLIPINVEILNAGISWAKENLAL	failed
MAEKTYSGFVAIVGKPNVGKSTLLNNLLGVKVAPISPRPQTTRKRLRGILTEGRRQIVFVDTPGLHKPMDALGEFMDQEVYEALADVNAVVWVVDLRHPPTPEDELVARALKPLVGKVPILLVGNKLDAAKYPEEAMKAYHELLPEAEPRMLSALDERQVAELKADLLALMPEGPFFYPEDYAKSDQTFGEWVAEILREEAMKRLWHEVPYAVATKVEEVAERENGVLYIKAILYVERPSQKAIVIGEGGRKIKEIGQATRKQLEALLGKKVYLDLEVKVYPDWRKDPEALRELGYRSSVG	not failed
MAELFIPDEPIIEVTAVLSAILILVLVLPFKVRIVEENLEAFFFIMGLLGVATIYYYGILPTPDSLIGLFIKAFKTPLAIAHVGPIPIGIVQAVVFFGLVFYFFHKHIYSILASTMEKVGIPVFAFILTFLLGLISSVISVIVTAVILAEIAAALNISRERKVKYVVYASFAVGIGAALTPLGEPLSTIAISKLNAHFTYLIDILGVYIVPGIAVSAVAAAYSLRGEVYREGLVKFVYEESINEILLRGFRVFLFVAALELLGASFTPMVKWYFAQLPSWALYWINTISAVVDNATLTAAEMGPFLTEEQIRSALMSLLISGGMLIPGNIPNIVAAGRLRITMNEWARVGVPFGIALLLAYFIVIEVLDIHITLSF	failed
MAEQEDIILEKPEDGLNQPRLDESLEGFKGQEGQAPEDEEFASLPEELPQENSESGFKFTRESAPEDVSTFEEVESQEPTPWYKDRKFMSLVGLSLGIICILVFTLFYLTFSEGKIKPDIIASKPLEQPVIMPDESYKYNDMQRIDGMIQKANALYLKGEVEQALKVYEQVAVYNESLSNYNLGVSQMNENKFQEAFESFKKAIANGENQSVAAINAAVCALKLNDKEKFRYYIDLAQVYLPKEGKSKLYDYYLSLINYYKGYYPEALQMLQRTDVEPYSDVAKYLSAKIYAKMDFDSKAIQQLNSQGNFESSLSLGLLYARIGEYAKAKVALSTAMKIERDFNQSLAALTLVDIKTGNYQDMLARLQNSYDNDKDRYKILDTYKIQVRLNKDLFNIAVAQNSFSKDLLKKQKDQFDLLFYFAPYQVFDSKQAALYIKKANVTDFVDDSTDAGIYLNISKALSSTNVKIANIINYALNQKLRLANQEFQKLIKDYPEHSILHYNLALTYAQMQNYELAYKHFSSSYHLNPKNYLAGAFAMFCAKLIDIDTTKLYNEILDNIAADSNFKANMQKSMLFLVNNNYISMLPYLDETKKDTPLSLIFEAIVAKNNNLNNQVDVKIAKLRSELPEDILANILYFNSLNSNLNIKEYAQNAQIHFKNLKLDYRSVFGGPNIAREFYVNLMHIAGLLNLERQKFKELINVSGAKDEGILQTLAYLDIFAQQYEEAYALYNSLIDDYGAKDTKTLFLAAVAAVGANNPNSAIALLQLSKLTDKNNKESKAALGMLYQEVKNYEAAISQYKTLPNNFKSEFFTFDINNN	failed
MAERSFSQLPISSSHIGRRTGNTRRGIFPVSEYWIHAIPVIVFLCFFTLWIFSHSVSVMNDGEIMSIHRLEKSMAVRNESHVSLAILASSAVSPASSALVAVVSTNQNLTTFHNATQSQQNATQSVNKAKQPHAV	not failed
